We go through 1 protein from ChEMBL document CHEMBL1138079.

Substrate in data set [1]: NC(=O)c1cc(N2CC2)c([N+](=O)[O-])cc1[N+](=O)[O-]
In words: Activity against Escherichia coli nitroreductase.

Data set [2] has as its target Oxygen-insensitive NAD(P)H nitroreductase NfsB (Escherichia coli) (UniProt P38489). The experiment in a line: Activity against Escherichia coli nitroreductase.

B1: Oxygen-insensitive NAD(P)H nitroreductase (Escherichia coli K-12), P38489 (protein)
chain: MDIISVALKRHSTKAFDASKKLTPEQAEQIKTLLQYSPSSTNSQPWHFIVASTEEGKARVAKSAAGNYVFNERKMLDASHVVVFCAKTAMDDVWLKLVVDQEDADGRFATPEAKAANDKGRKFFADMHRKDLHDDAEWMAKQVYLNVGNFLLGVAALGLDAVPIEGFDAAILDAEFGLKEKGYTSLVVVPVGHHSVEDFNATLPKSRLPQNITLTEV
What is called Km is the concentration of substrate that gives half-maximal velocity. Turning to B1, the Km in data set [1] is 881 µM; in data set [2], 195 µM.
